This data set concerns the molecule itself. The data set can be described thus: cryo-EM structure; single-particle cryo-EM of purified Panx2-NT (Superose 6 peak at 16.0 ml), 50 mM Tris pH 7.5, 150 mM NaCl, 0.02% GDN, ~10 mg/ml; C1 map without imposed symmetry, final refinement with C7 symmetry at ~3.4 Å.

B1: human pannexin 2 N-terminal domain (Panx2-NT, amino acids 1-410) (domain or fragment, UniProt Q96RD6-3 1-410, looked up)
chain: MHHLLEQSADMATALLAGEKLRELILPGAQDDKAGALAALLLQLKLELPFDRVVTIGTVLVPILLVTLVFTKNFAEEPIYCYTPHNFTRDQALYARGYCWTELRDALPGVDASLWPSLFEHKFLPYALLAFAAIMYVPALGWEFLASTRLTSELNFLLQEIDNCYHRAAEGRAPKIEKQIQSKGPGITEREKREIIENAEKEKSPEQNLFEKYLERRGRSNFLAKLYLARHVLILLLSAVPISYLCTYYATQKQNEFTCALGASPDGAAGAGPAVRVSCKLPSVQLQRIIAGVDIVLLCVMNLIILVNLIHLFIFRKSNFIFDKLHKVGIKTRRQWRRSQFCDINILAMFCNENRDHIKSLNRLDFITNESDLMYDNVVRQLLAALAQSNHDATPTVRDSGVQTVDPSAN
modifications: N-glycosylated on N86 (extra density observed near N86)
notes: Pannexin 2 (PANX2), H. sapiens, NCBI NP_443071.2, 677 residues in full; construct Panx2-NT holds amino acids 1-410, made to mimic the caspase-cleaved truncation; the model holds residues 41-184, 188-266, 273-373 and 377-388; also called C-terminal truncated Panx2; human N-terminal Panx2; source: HEK293F, transient transfection (PEI), purified (DDM solubilisation, anti-FLAG M2 agarose, Superose 6 …)
Turning to B1, the stoichiometry N (commonly a count of units in the complex or per binding partner) is 7.

The values are drawn from article PMC9984531, “Cryo-EM structure of human heptameric pannexin 2 channel” (Nature Communications, 2023).
